In patent US20220041711A1:
Changes are numbered by the printed parent chain.

B1: anti-LAIR-1 antibody ch57D12 (antibody, V domains shown)
VH: QVQLQQSGAELARPGASVNLSCRASGYSFTSFGISWVKQRTGQGLEWIGEIYPRSDNTFYNEKFKGKATLTADKSSSTAYMELRSLTSEDSAVYFCARHFGSSSFDYWGQGTTLTVSS
VL: ENVLTQSPPIMAASLGQKVTMTCSASSSVSSIYFHWYQQKSGTSPKPLIHRASNLASGVPARFSGSGSGTSYSLTISSVEAEDDATYYCQQWSGYPLTFGGGTKLEIK
B2: humanized anti-LAIR-1 antibody Hz47H1.v4 (antibody, human IgG1, kappa, N297G, V domains shown)
VH: EVQLVESGGGLVQPGGSLRLSCAASGFTFNINAMNWVRQAPGKGLEWVARIRTKNYNYATFYADSVKDRFTISRDDSKNSLYLQMNSLKTEDTAVYYCVRDRAGFFAYWGQGTTVTVSS
VL: DIQMTQSPSSLSASVGDRVTITCLASQTIGTWLGWYQQKPGKAPKLLIYAATSLAEGVPSRFSGSGSGTDFTLTISSLQPEDFATYYCQQLYSTPLTFGGGTKVEIKR
B3: humanized anti-LAIR-1 antibody Hz62G10.v1 (antibody, human IgG1, kappa, N297G, V domains shown)
VH: EVQLVESGGGLVKPGGSLRLSCAASGFTFNINAMNWVRQAPGKGLEWVARIRTKNNNFATYYADSVKDRFTISRDDSKNTLYLQMNSLKTEDTAVYYCVRGPYFDYWGQGTLVTVSS
VL: B2 VL with G34A, E56D, L96Y
B4: anti-LAIR-1 antibody ch47H1 (antibody, V domains shown)
VH: EVQLVETGGGLVQPKGSLKLSCAASGFTFNINAMNWVRQAPGKGLEWVARIRTKNNNYATFYADSVKDRFTISRDDSQSMLYLQMNNLKTDDTAMYYCVRDRAGFFAYWGQGTPVTVSA
VL: DIQMTQSPASQSASLGESVTITCLASQTIGTWLGWYRQKPGKSPQLLIYAATSLADGVPSRFSGSGSGTKFSFKISSLQAEDFVIYYCQQLYSTPLTFGSGTKLEIK
B5: anti-LAIR-1 antibody ch62G10 (antibody, V domains shown)
VH: EVQLVETGGGLVQPKGSLKLSCATSGFTFNINAMNWVRQAPGKGLEWVARIRTKNNNFATYYADSVKDRFTISRDDSQSMLYLQMNNLKTEDTAMYYCVRGPYFDYWGQGTTLTVSS
VL: B4 VL with G34A, R37Q, S77N, I85T, L96Y, S100G

Target: cyno LAIR-1-Fc (cynomolgus monkey)
Sequence (chain, as listed by the source limits assumed, form in doubt): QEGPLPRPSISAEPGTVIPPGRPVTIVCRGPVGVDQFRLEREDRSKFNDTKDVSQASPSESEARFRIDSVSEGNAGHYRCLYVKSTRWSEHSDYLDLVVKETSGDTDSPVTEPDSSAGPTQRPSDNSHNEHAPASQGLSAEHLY
Experiment: ELISA blocking: plate coated with 5 µg/mL human collagen type 1, antibody titrated, 1 µg/mL biotinylated cyno LAIR-1-Fc, streptavidin-HRP, OD650

| IC50 (read off the curve) | Binder |
| --- | --- |
| 6 nM | B1 |
| 3 nM | B2 |
| 3 nM | B3 |
| 3 nM | B4 |
| 3 nM | B5 |
